Among the data in patent US20080182299A1 are LOD values, retold here.

Test [1] has as its target Mouse monoclonal antibody clone 13A3.G6.H1, lot #18881C, raised against CGEN3901 (SEQ ID NO:50). As to the kind of experiment: antigen capture competitive ELISA format #4, repeatability tests.
The target is the same in test [2]. Description: antibody capture competitive ELISA format #5; coat 13A3.G6.H1; tracer biotin-labeled CgenBNP_29; unlabeled peptide as competitor.
For test [3] the target is unchanged. As to the kind of experiment: antigen capture competitive ELISA format #4; coat CgenBNP_49; detector 13A3.G6.H1; free peptide spiked in serum as competitor.

In the case of AEGSSGGLDSSNERVLTCCPKRPSSFLWN [AEWN 29 (also called herein CgenBNP_29, SEQ ID NO: 48)], the values for the LOD in test [1], in test [2] and in test [3] were 1 to 3 ng/mL, 5 ng/mL and 0.3 ng/mL, respectively.

Turning to H-HPLGSPGSASDLETSGLQVRAEGSSGGLDSSNERVLTCCPKRPSSFLWN-OH (cysteine pairing not given here) [HPWN49 (also called herein CgenBNP_49, SEQ ID NO: 49)], the LOD in test [1] was 1 to 3 ng/mL; in test [3], 0.6 ng/mL.
